What was measured:
Experiment in all cases: cell-based or functional assay
[1] = molecular target: Env of HIV isolate 286.36 (clade C) (HIV)
[2] = molecular target: Env of HIV isolate CNE19 (clade BC) (HIV)
[3] = molecular target: Env of HIV isolate 247-23 (clade D) (HIV)
[4] = molecular target: HIV Env of isolate SO18.18 (HIV)
[5] = molecular target: HIV Env of isolate CH181.12 (HIV)
[6] = molecular target: Env of HIV isolate 6535.3 (clade B) (HIV)
[7] = molecular target: Env of HIV isolate Q769.h5 (clade A) (HIV)
[8] = molecular target: Env of HIV isolate 0815.v3.c3 (clade ACD) (HIV)
[9] = molecular target: Env of HIV isolate THRO.18 (clade B) (HIV)
[10] = molecular target: Env of HIV isolate Q168.a2 (clade AD) (HIV)
[11] = molecular target: Env of HIV isolate A03349M1.vrc4a (clade D) (HIV)
[12] = molecular target: HIV Env of isolate CNE30 (HIV)
[13] = molecular target: Env of HIV isolate 3589.v1.c4 (clade AC) (HIV)
[14] = molecular target: Env of HIV isolate 231965.c01 (clade D) (HIV)
[15] = molecular target: HIV Env of isolate CNE58 (HIV)
[16] = molecular target: Env of HIV isolate HXB2.DG (clade B) (HIV)
[17] = molecular target: HIV Env of isolate 286.36 (HIV)
[18] = molecular target: HIV Env of isolate ZM249.1 (HIV)
[19] = molecular target: Env of HIV isolate C3347.c11 (clade AE) (HIV)
[20] = molecular target: HIV Env of isolate DU123.06 (HIV)
[21] = molecular target: Env of HIV isolate BB201.B42 (clade A) (HIV)
[22] = molecular target: Env of HIV isolate DU172.17 (clade C) (HIV)
[23] = molecular target: Env of HIV isolate BI369.9A (clade A) (HIV)
[24] = molecular target: HIV Env of isolate 6405.v4.c34 (HIV)
[25] = molecular target: Env of HIV isolate C2101.c1 (clade AE) (HIV)
[26] = molecular target: Env of HIV isolate SS1196.01 (clade B) (HIV)
[27] = molecular target: Env of HIV isolate P0402.c2.11 (clade G) (HIV)
[28] = molecular target: HIV Env of isolate 191821.E6.1 (HIV)
[29] = molecular target: Envelope of SVA.MLV
[30] = molecular target: Env of HIV isolate T257-31 (clade AG) (HIV)
[31] = molecular target: Env of HIV isolate ZM135.10a (clade C) (HIV)
[32] = molecular target: Env of HIV isolate SC422.8 (clade B) (HIV)
[33] = molecular target: Env of HIV isolate 6545.v4.c1 (clade AC) (HIV)
[34] = molecular target: Env of HIV isolate 6322.v4.c1 (clade C) (HIV)
[35] = molecular target: Env of HIV isolate QH209.14M.A2 (clade A) (HIV)
[36] = molecular target: Env of HIV isolate 6405.v4.c34 (clade D) (HIV)
[37] = molecular target: HIV Env of isolate CH070.1 (HIV)
[38] = molecular target: Env of HIV isolate ZM53.12 (clade C) (HIV)
[39] = molecular target: HIV Env of isolate 57128.vrc15 (HIV)
[40] = molecular target: HIV Env of isolate 0013095-2.11 (HIV)
[41] = molecular target: Env of HIV isolate CNE56 (clade AE) (HIV)
[42] = molecular target: Env of HIV isolate CAP256.206.C9 (clade C) (HIV)
[43] = molecular target: Env of HIV isolate 263-8 (clade AG) (HIV)
[44] = molecular target: Env of HIV isolate CNE59 (clade AE) (HIV)
[45] = molecular target: Env of HIV isolate MB539.2B7 (clade A) (HIV)
[46] = molecular target: Env of HIV isolate T278-50 (clade AG) (HIV)
[47] = molecular target: Env of HIV isolate Q23.17 (clade A) (HIV)
[48] = molecular target: HIV Env of isolate 25711-2.4 (HIV)
[49] = molecular target: Env of HIV isolate KNH1209.18 (clade A) (HIV)
[50] = molecular target: HIV Env of isolate 0077.v1.c16 (HIV)

B1: ePGT121.15 (ePGT121.15.H6 VH and ePGT121.15.L1 VL) (antibody, V domains shown)
VH: QMQLQESGPGLVKPGETLSLTCSVSGASISSSYWSWLRETPGKGLEWIGYTHHSGDTNYAPSLKSRVHLGLHPSKNQVSLSLTSVTAADTAVYYCARTLHGRRIYGVVAFNEFFTYFYWEVWGKGTQVTVSS
VL: SDISVAPGETVRISCGGESIGSRAVQWYQHRAGQAPKLIIYNNQDRPPGIPERFSGSPDIDFGTTATLTITNVEAGDEATYYCHIWDSRRPTNWVFGGGTTLTVL
IC50, pseudovirus neutralization [1]: 2 ng/mL | IC50, pseudovirus neutralization [2]: 4 ng/mL | IC50, pseudovirus neutralization [3]: > 50000 ng/mL | IC80, pseudovirus neutralization [4]: 9 ng/mL | IC80, pseudovirus neutralization [5]: 8 ng/mL | IC50, pseudovirus neutralization [6]: 0.7 ng/mL | IC50, pseudovirus neutralization [7]: > 50000 ng/mL | IC50, pseudovirus neutralization [8]: 2 ng/mL | IC50, pseudovirus neutralization [9]: > 50000 ng/mL | IC50, pseudovirus neutralization [10]: 5070 ng/mL | IC50, pseudovirus neutralization [11]: 6 ng/mL | IC80, pseudovirus neutralization [12]: 27 ng/mL | IC50, pseudovirus neutralization [13]: 229 ng/mL | IC50, pseudovirus neutralization [14]: 12500 ng/mL | IC80, pseudovirus neutralization [15]: 75 ng/mL | IC50, pseudovirus neutralization [16]: 11 ng/mL | IC80, pseudovirus neutralization [17]: 6 ng/mL | IC80, pseudovirus neutralization [18]: 1010 ng/mL | IC50, pseudovirus neutralization [19]: > 50000 ng/mL | IC80, pseudovirus neutralization [20]: 8 ng/mL | IC50, pseudovirus neutralization [21]: 3 ng/mL | IC50, pseudovirus neutralization [22]: 3 ng/mL | IC50, pseudovirus neutralization [23]: 2 ng/mL | IC80, pseudovirus neutralization [24]: 9 ng/mL | IC50, pseudovirus neutralization [25]: > 50000 ng/mL | IC50, pseudovirus neutralization [26]: 3 ng/mL | IC50, pseudovirus neutralization [27]: 4 ng/mL | IC80, pseudovirus neutralization [28]: 3000 ng/mL | IC80, pseudovirus neutralization [29]: > 50000 ng/mL | IC50, pseudovirus neutralization [30]: > 50000 ng/mL | IC50, pseudovirus neutralization [31]: 119 ng/mL | IC50, pseudovirus neutralization [32]: 11 ng/mL | IC50, pseudovirus neutralization [33]: > 50000 ng/mL | IC50, pseudovirus neutralization [34]: > 50000 ng/mL | IC50, pseudovirus neutralization [35]: > 50000 ng/mL | IC50, pseudovirus neutralization [36]: 3 ng/mL | IC80, pseudovirus neutralization [37]: 4 ng/mL | IC50, pseudovirus neutralization [38]: 8 ng/mL | IC80, pseudovirus neutralization [39]: 26 ng/mL | IC80, pseudovirus neutralization [40]: 11900 ng/mL | IC50, pseudovirus neutralization [41]: > 50000 ng/mL | IC50, pseudovirus neutralization [42]: 3 ng/mL | IC50, pseudovirus neutralization [43]: 14 ng/mL | IC50, pseudovirus neutralization [44]: > 50000 ng/mL | IC50, pseudovirus neutralization [45]: > 50000 ng/mL | IC50, pseudovirus neutralization [46]: 4870 ng/mL | IC50, pseudovirus neutralization [47]: 3 ng/mL | IC80, pseudovirus neutralization [48]: 8 ng/mL | IC50, pseudovirus neutralization [49]: 3 ng/mL | IC80, pseudovirus neutralization [50]: > 50000 ng/mL
